In one data set the target is FLAG-p53 (UniProt P04637 1-393). The data set is described as follows: pull-down.
Another data set concerns the target p53 wild type (UniProt P04637 1-393). The data set is described as follows: pull-down.

Sequence of p53 wild type (P04637 whole entry): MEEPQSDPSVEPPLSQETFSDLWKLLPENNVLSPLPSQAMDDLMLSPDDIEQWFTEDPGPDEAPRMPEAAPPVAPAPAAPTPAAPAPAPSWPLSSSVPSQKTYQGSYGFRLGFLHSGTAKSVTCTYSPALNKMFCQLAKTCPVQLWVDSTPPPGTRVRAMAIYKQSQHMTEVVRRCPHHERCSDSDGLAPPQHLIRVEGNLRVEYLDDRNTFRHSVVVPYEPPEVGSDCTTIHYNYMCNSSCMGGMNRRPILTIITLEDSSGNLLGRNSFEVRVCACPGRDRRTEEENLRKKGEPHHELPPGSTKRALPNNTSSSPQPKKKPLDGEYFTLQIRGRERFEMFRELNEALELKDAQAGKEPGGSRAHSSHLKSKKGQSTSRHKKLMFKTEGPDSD
Sequence of FLAG-p53 (P04637 whole entry): as above

B1: biotinylated p53-site oligonucleotide (dsDNA)
DNA 1: TCGAGAGGCATGTCTAGGCATGTCTC
DNA 2: GAGACATGCCTAGACATGCCTCTCGA
Take B1: the binding result with FLAG-p53 and with p53 wild type was “binds” in each case.

The values above are taken from publication PMC7398576.
